Columns and labels:
[1] = biological target: T1, endogenous human NEDD9 of human pulmonary artery endothelial cells (lysates and plasma membrane fractions) (human, UniProt Q14511 1-834, limits assumed); assay: co-immunoprecipitation from HPAEC plasma membrane fractions incubated with recombinant P-Selectin for 1 hr
T1 construct: Endogenous protein in cell material; also called NEDD9 in HPAECs; NEDD9 p55 fragment
T1 sequence (looked up): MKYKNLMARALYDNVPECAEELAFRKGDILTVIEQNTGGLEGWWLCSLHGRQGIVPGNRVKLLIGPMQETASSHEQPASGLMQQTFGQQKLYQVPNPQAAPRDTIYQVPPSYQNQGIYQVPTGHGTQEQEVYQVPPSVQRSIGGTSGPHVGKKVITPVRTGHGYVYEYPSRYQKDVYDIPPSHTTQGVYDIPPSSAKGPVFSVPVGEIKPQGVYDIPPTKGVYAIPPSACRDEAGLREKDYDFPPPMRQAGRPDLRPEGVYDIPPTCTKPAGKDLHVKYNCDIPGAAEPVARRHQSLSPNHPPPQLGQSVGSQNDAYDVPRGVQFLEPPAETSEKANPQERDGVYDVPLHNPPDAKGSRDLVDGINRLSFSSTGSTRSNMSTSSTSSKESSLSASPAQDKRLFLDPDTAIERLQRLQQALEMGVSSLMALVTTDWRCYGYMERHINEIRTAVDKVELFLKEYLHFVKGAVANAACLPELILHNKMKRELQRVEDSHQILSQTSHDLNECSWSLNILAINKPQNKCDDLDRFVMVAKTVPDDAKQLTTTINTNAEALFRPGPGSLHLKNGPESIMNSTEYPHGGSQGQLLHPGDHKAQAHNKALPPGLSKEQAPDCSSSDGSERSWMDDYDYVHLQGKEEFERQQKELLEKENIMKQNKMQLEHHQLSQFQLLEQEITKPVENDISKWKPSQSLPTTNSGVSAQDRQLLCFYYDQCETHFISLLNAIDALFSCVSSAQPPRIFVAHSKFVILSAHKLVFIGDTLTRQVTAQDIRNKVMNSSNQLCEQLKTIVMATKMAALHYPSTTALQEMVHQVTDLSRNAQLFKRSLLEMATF
Procedure: Magnetic beads (Bio-Rad SureBeads) were resuspended in 100 μl solution (1 mg at 10 mg/mL), magnetized, and serially washed with 1 mL PBS+0.1% Tween 20 (PBS-T). Primary antibody (10 μg) (Table 2) was added to the resuspended beads in a final volume of 200 μl and rotated at room temperature for 10 min. The beads were then magnetized and serially washed with 1 mL PBS-T before incubation with the antigen-containing HPAEC plasma membrane lysate (250-500 μl) plus recombinant P-Selectin (R&D Systems) (0.5-1.0 μg) for 1 hr at room temperature. In the cell-free immunoprecipitation experiment, the antibody-labeled beads were incubated with recombinant NEDD9 (Origene)³⁹ (5 ng) and recombinant P-Selectin (5 ng) in the presence of IgG₁ control, msAb-N9-P1 (10-20 uM), or msAb-N9-P2 (10-20 μM) for 1 hr at room temperature. […]
Next, LC-MS was performed on in-gel trypsin-digested lysates, and identified only two NEDD9 peptide sequences, both within the substrate domain: K.[…].D (AA: 91-102; SEQ ID NO:9) (N9-P1) and K.[…].G (AA: 191-211; SEQ ID NO:10) (N9-P2) (N=2 replicates for N=2 iterations) (FIG. 4A). […] Plasma membrane fractions from HPAECs were incubated with V-control or exogenous (recombinant) P-Selectin for 1 hr, and P-Selectin-NEDD9 complex formation was assessed by co-immunoprecipitation.

[2] = biological target: T2, recombinant human NEDD9 (neural precursor cell expressed, developmentally down-regulated 9), OriGene TP307200 (human, UniProt Q14511 1-834); assay: microscale thermophoresis, labelled NEDD9 20 nM, P-Selectin titrated
T2 construct: Bought recombinant protein; In microscale thermophoresis it was labelled with the dye NT-647-NHS; also called recombinant NEDD9; purified human NEDD9
T2 sequence (looked up): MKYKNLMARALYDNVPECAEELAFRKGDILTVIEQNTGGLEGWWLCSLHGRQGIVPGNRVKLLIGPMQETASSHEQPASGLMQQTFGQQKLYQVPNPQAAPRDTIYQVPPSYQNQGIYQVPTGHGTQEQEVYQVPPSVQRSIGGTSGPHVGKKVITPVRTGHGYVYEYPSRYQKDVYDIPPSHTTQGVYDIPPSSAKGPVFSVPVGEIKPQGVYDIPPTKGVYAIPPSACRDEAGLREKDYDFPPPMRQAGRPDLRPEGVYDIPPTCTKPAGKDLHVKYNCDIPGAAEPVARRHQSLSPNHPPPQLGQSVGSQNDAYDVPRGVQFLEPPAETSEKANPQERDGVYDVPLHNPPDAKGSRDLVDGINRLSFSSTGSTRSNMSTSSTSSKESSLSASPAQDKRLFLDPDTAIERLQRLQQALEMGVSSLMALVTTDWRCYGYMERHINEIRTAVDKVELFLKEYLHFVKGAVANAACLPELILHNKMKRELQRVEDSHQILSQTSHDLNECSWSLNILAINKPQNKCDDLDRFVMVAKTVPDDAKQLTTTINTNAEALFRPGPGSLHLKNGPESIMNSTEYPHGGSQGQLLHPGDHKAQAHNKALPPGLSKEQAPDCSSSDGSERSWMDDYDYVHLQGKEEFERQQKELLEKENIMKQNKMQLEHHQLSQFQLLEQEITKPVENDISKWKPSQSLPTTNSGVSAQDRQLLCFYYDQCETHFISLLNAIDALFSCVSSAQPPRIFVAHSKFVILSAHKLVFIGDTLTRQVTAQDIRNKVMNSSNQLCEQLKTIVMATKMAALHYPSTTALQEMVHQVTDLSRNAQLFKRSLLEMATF
Procedure: (§1) FIGS. 4A-E. P-Selectin binds the NEDD9 substrate domain. (A) HPAEC plasma membrane fractions were incubated with recombinant P-Selectin (0.5-1.0 μg), and liquid chromatography-mass spectrometry (LC-MS) was performed on samples following anti-P-Selectin immunoprecipitation. The MS2 spectra for each of the two detected NEDD9 peptide sequences, both within the substrate domain, are shown: K.[…].D (AA: 91-102; SEQ ID NO:9) (m z 677.36735 at retention time […]) (N9-P1) and K.[…].G (AA: 191-211; SEQ ID NO:10) (m/z 808.77731 at retention time […]) (N9-P2) (N=2 replicates for N=2 iterations). Underlining indicates a YxxP sequence. (B) HPAEC plasma membrane fractions were incubated with exogenous P-Selectin and co-immunoprecipitation for P-Selectin and NEDD9 was performed. PM, plasma membrane; UN, untreated. Varying concentrations of P-Selectin (ligand) (2 μM-0.5 nM) were co-incubated with NEDD9 (receptor) (20 nM) and microscale thermophoresis was performed to assess macromolecular interactions between these proteins. […]
(§2) Microscale Thermophoresis. […] In preliminary studies, we determined that Tris buffer containing 10% glycerol, 1% BSA, 0.05% Tween-20 and 5 mM DDT was an optimal buffer to minimize sample aggregation and adsorption in the capillary tube.³⁹ For experiments, NEDD9 (20 nM) was incubated with decreasing concentrations of P-Selectin (2 μM-0.5 nM) and MST scan was performed.

[3] = biological target: T2, recombinant human NEDD9 (neural …); assay: microscale thermophoresis; dye-labelled NEDD9 20 nM, P-Selectin titrated 2 µM-0.5 nM, N=2
Procedure: as §1, §2

fold increase of NEDD9:P-Selectin complex formation against V-control [1]: 3 fold
EC50 (read off the curve) [2]: ~60 nM
Kd [3]: 13.9 nM
B1: recombinant P-Selectin/CD62P, R&D Systems ADP3-200 (other, human, UniProt P16109 42-771, looked up)
chain: WTYHYSTKAYSWNISRKYCQNRYTDLVAIQNKNEIDYLNKVLPYYSSYYWIGIRKNNKTWTWVGTKKALTNEAENWADNEPNNKRNNEDCVEIYIKSPSAPGKWNDEHCLKKKHALCYTASCQDMSCSKQGECLETIGNYTCSCYPGFYGPECEYVRECGELELPQHVLMNCSHPLGNFSFNSQCSFHCTDGYQVNGPSKLECLASGIWTNKPPQCLAAQCPPLKIPERGNMTCLHSAKAFQHQSSCSFSCEEGFALVGPEVVQCTASGVWTAPAPVCKAVQCQHLEAPSEGTMDCVHPLTAFAYGSSCKFECQPGYRVRGLDMLRCIDSGHWSAPLPTCEAISCEPLESPVHGSMDCSPSLRAFQYDTNCSFRCAEGFMLRGADIVRCDNLGQWTAPAPVCQALQCQDLPVPNEARVNCSHPFGAFRYQSVCSFTCNEGLLLVGASVLQCLATGNWNSVPPECQAIPCTPLLSPQNGTMTCVQPLGSSSYKSTCQFICDEGYSLSGPERLDCTRSGRWTDSPPMCEAIKCPELFAPEQGSLDCSDTRGEFNVGSTCHFSCDNGFKLEGPNNVECTTSGRWSATPPTCKGIASLPTPGVQCPALTTPGQGTMYCRHHPGTFGFNTTCYFGCNAGFTLIGDSTLSCRPSGQWTAVTPACRAVKCSELHVNKPIAMNCSNLWGNFSYGSICSFHCLEGQLLNGSAQTACQENGHWSTTVPTCQAGPLTIQEA
notes: Bought recombinant protein; Species is read from 'Purified human NEDD9 and P-Selectin/CD62P'; also called exogenous P-Selectin

— patent US20210324058A1 (BRIGHAM AND WOMEN S HOSPITAL, published 2021)
